Experimental data: article PMC10876938, “In vitro SELEX and application of an African swine fever virus (ASFV) p30 protein specific aptamer”

B1: Atc-20 (ssDNA)
DNA: CACGCATAGGGTCGACGGTGCCGTCCGTGTTCACACTCCCATTTGGGTGGCCTATGCGTG
B2: Apt A4 (biotin) (ssDNA)
DNA: ATTGGCACTCCACGCATAGGGTCGACGGTGCCGTCCGTGTTCACACTCCCATTTGGGTGGCCTATGCGTGCTACCGTGAA
B3: Atc-28 (ssDNA)
DNA: CATAGGGTCGACGGTGCCGTCCGTGTTCACACTCCCATTTGGGTGGCCTATG

Biological target: ASFV p30 (African swine fever virus, UniProt P34204 1-204)
Test: enzyme-linked aptamer adsorbed assay; […] (binding buffer not stated); […], room temperature, 30 min; […]
Settings: protein: commercial, label: 5'-biotin
[1] = hairpin (M-fold predicted for parent)

Chain of ASFV p30 (P34204 whole entry): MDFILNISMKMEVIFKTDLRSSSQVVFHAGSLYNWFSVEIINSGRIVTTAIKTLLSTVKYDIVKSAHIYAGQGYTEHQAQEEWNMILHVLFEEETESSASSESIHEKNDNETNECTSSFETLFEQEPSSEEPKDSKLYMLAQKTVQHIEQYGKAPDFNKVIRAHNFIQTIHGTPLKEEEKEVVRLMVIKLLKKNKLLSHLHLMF

| Binder | Kd [1] | also measured |
| --- | --- | --- |
| B1 | 140 ± 10 pM | – |
| GGGTCGACGGTGCCGTCCGTGTTCACACTCCCATTTGGGTGGCC (ssDNA) [Atc-34] | 266 ± 68 pM | – |
| B2 | – | Kd (hairpin (M-fold predicted)): 170 ± 6.2 pM |
| B3 | 153 ± 0.3 pM | – |
| ATTGGCACTCCACGCATCTATGCGTGCTACCGTGAA (ssDNA) [AptNC] | – | binding result: no binding |
